Values belong to the binder of their own block, whether it stands above or below them. Numbered stars: 1 amine (or outer) side, 2 acyl side, 3 side chain; on linkers, the order of the positions; unused ones are H or OH. Bridge positions count the residues as written; N and C are the ends. Side chains are listed from the residue outwards. Ends that are not written are not given here. * marks the point of attachment. C20 diacid = O=C(O)CCCCCCCCCCCCCCCCCCC(=O)*; γGlu = O=C(O)[C@H](CCC(=O)[*:2])N[*:1]; AEEA = NCCOCCOCC(=O)O
Tests used:
[1] = molecular target: T1, human amylin receptor (amylin 3(a) receptor: human calcitonin receptor co-expressed with RAMP-3) (human, UniProt P30988 25-474; O60896 24-148, limits assumed); assay: cell-based or functional assay
T1 sequence (looked up) 1: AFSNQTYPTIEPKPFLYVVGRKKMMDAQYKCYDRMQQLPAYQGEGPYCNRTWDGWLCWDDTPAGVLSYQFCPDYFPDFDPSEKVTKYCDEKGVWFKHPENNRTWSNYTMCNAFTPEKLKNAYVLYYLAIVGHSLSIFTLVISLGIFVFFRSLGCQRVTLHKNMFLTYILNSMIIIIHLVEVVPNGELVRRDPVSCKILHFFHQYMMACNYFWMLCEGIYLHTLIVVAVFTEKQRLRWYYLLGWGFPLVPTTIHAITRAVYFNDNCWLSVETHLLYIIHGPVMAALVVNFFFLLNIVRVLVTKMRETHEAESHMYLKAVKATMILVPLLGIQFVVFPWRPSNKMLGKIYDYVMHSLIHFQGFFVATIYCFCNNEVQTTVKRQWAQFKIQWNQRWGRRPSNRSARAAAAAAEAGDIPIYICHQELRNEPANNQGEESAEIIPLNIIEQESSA
T1 sequence (looked up) 2: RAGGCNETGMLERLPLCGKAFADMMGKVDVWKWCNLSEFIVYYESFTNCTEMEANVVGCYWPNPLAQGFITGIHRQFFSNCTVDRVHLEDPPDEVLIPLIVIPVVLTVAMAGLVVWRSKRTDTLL

[2] = molecular target: T2, human calcitonin receptor (human, UniProt P30988 25-474); assay: cell-based or functional assay
T2 sequence (looked up): T1 sequence (looked up) 1

Ratio hCT/hAmylin funct. [1]: 32.5
hAmylin-R funct. EC50 [1]: 0.169 nM
hCTR funct. EC50 [2]: 5.49 nM
B1: N^ε1-[2-[2-[2-[[(4S)-4-carboxy-4-(19-carboxynonadecanoylamino)butanoyl]amino]ethoxy]ethoxy]acetyl]-[His14,Arg17,Pro21,Pro27,Arg34]-h-amylin (peptide)
peptide: K([AEEA-γGlu-C20 diacid])CNTATCATQRLAHFLRHSSPNFGAIPSSTNVGRNTY-NH2
modifications: disulfide 2-7; N-terminus assumed
SMILES: CC[C@H](C)[C@H](NC(=O)[C@H](C)NC(=O)CNC(=O)[C@H](Cc1ccccc1)NC(=O)[C@H](CC(N)=O)NC(=O)[C@@H]1CCCN1C(=O)[C@H](CO)NC(=O)[C@H](CO)NC(=O)[C@H](Cc1c[nH]cn1)NC(=O)[C@H](CCCNC(=N)N)NC(=O)[C@H](CC(C)C)NC(=O)[C@H](Cc1ccccc1)NC(=O)[C@H](Cc1c[nH]cn1)NC(=O)[C@H](C)NC(=O)[C@H](CC(C)C)NC(=O)[C@H](CCCNC(=N)N)NC(=O)[C@H](CCC(N)=O)NC(=O)[C@@H](NC(=O)[C@H](C)NC(=O)[C@@H]1CSSC[C@H](NC(=O)[C@@H](N)CCCCNC(=O)COCCOCCNC(=O)CC[C@H](NC(=O)CCCCCCCCCCCCCCCCCCC(=O)O)C(=O)O)C(=O)N[C@@H](CC(N)=O)C(=O)N[C@@H]([C@@H](C)O)C(=O)N[C@@H](C)C(=O)N[C@@H]([C@@H](C)O)C(=O)N1)[C@@H](C)O)C(=O)N1CCC[C@H]1C(=O)N[C@@H](CO)C(=O)N[C@@H](CO)C(=O)N[C@H](C(=O)N[C@@H](CC(N)=O)C(=O)N[C@H](C(=O)NCC(=O)N[C@@H](CCCNC(=N)N)C(=O)N[C@@H](CC(N)=O)C(=O)N[C@H](C(=O)N[C@@H](Cc1ccc(O)cc1)C(N)=O)[C@@H](C)O)C(C)C)[C@@H](C)O
notes: also called compound 84

hAmylin-R funct. EC50 [1]: 0.139 nM
hCTR funct. EC50 [2]: 2.14 nM
B2: N^ε1-[2-[2-[2-[[(4S)-4-carboxy-4-(19-carboxynonadecanoylamino)butanoyl]amino]ethoxy]ethoxy]acetyl]-[His14,Arg17,Pro21,Pro27,His34]-h-amylin (peptide)
peptide: K([AEEA-γGlu-C20 diacid])CNTATCATQRLAHFLRHSSPNFGAIPSSTNVGHNTY-NH2
modifications: disulfide 2-7; N-terminus assumed
SMILES: CC[C@H](C)[C@H](NC(=O)[C@H](C)NC(=O)CNC(=O)[C@H](Cc1ccccc1)NC(=O)[C@H](CC(N)=O)NC(=O)[C@@H]1CCCN1C(=O)[C@H](CO)NC(=O)[C@H](CO)NC(=O)[C@H](Cc1c[nH]cn1)NC(=O)[C@H](CCCNC(=N)N)NC(=O)[C@H](CC(C)C)NC(=O)[C@H](Cc1ccccc1)NC(=O)[C@H](Cc1c[nH]cn1)NC(=O)[C@H](C)NC(=O)[C@H](CC(C)C)NC(=O)[C@H](CCCNC(=N)N)NC(=O)[C@H](CCC(N)=O)NC(=O)[C@@H](NC(=O)[C@H](C)NC(=O)[C@@H]1CSSC[C@H](NC(=O)[C@@H](N)CCCCNC(=O)COCCOCCNC(=O)CC[C@H](NC(=O)CCCCCCCCCCCCCCCCCCC(=O)O)C(=O)O)C(=O)N[C@@H](CC(N)=O)C(=O)N[C@@H]([C@@H](C)O)C(=O)N[C@@H](C)C(=O)N[C@@H]([C@@H](C)O)C(=O)N1)[C@@H](C)O)C(=O)N1CCC[C@H]1C(=O)N[C@@H](CO)C(=O)N[C@@H](CO)C(=O)N[C@H](C(=O)N[C@@H](CC(N)=O)C(=O)N[C@H](C(=O)NCC(=O)N[C@@H](Cc1c[nH]cn1)C(=O)N[C@@H](CC(N)=O)C(=O)N[C@H](C(=O)N[C@@H](Cc1ccc(O)cc1)C(N)=O)[C@@H](C)O)C(C)C)[C@@H](C)O
notes: also called compound 80

Reference: US20140087995A1 (published 2014)
